The nature of this data set: soluble on expression in E. coli; label from the status in PepcDB or PDB records.
As to “SLEECVCENYKLAVNCFVNNNRQCQCTSVGAQNTVICSKLAAKCLVMKAEMNGSKLGRRAKPEGALQNNDGLYDPDCDESGLFKAKQCNGTSTCWCVNTAGVRRTDKDTEITCSERVRTYWIIIELKHKAREKPYDSKSLRTALQKEITTRYQLDPKFITSILYENNVITIDLVQNSSQKTQNDVDIADVAYYFEKDVKGESLFHSKKMDLTVNGEQLDLDPGQTLIYYVDEKAPEFSEG”, the “soluble on expression in E. coli” value was “not soluble”.
Regarding “SLFARITFYPSLFYNVMMEKITARHWYDRIDENVILGALPFRSVAQEMVQKENIKAVVSMNEDYELWAFSNNKARWAKLGVEFLQLETTDIFESPCQEKLWKGVNFMNRFLPANDRMALLPAAPGELAEPGTIYVHSKAGRTRSATLVGCYLIMKNGWSPEQAVEHMRQCRPHILLRSKQWEALRLFHQTKCPPPK”, the “soluble on expression in E. coli” value is “soluble”.
Then “SLGRNWRSWRYAERADDLLISRGVLWREETVVPYGRMQLVEVTSGPVERHFGLASVQLHTAAAATDATIPGLDPAEAERLRDRLTELGEARSAG”, with “soluble”.
For “SLIKNEHVKKCDTWPSGGEMVVKDLTVKYVDDGNAILENICFSISPGQRVGLLGRTGSGKSTLLSAFLRMLNIKGEIQIDGVSWNSMTLEEWRKAFGVITQKVFIFSGTFRQNLDPNGKWRDEEIWKVADQVGLKSVIEQFPGQLNFTLVDGGYVLSHGHKQLMCLARSVLSKAKIILLDEPSANLDPITYQVIRRVLRQAFAGCTVVLCEARIEAMLDCDRFLVIEQGNVWQYESLQALLSEKSDFQRALSSSE” the value was “soluble”; for “SLKAIKNGTILTGTGETIKQGTLLIQDGKVLEVGQRVDTPANAKLIDATGKYVTPGLIDVHTHIGVFSEGLGRTGHDFNETTAAATPYIRAIDGIYPFDQGFEDARQSGVTTVQIMPGSANVIGGEMVTVKTAGTVVDEMIVRAPSGMKAAFGENPKNVHGGKGKLPATRMGVAALFRQQLYQAQDYLKRFEKGELEKRDLGMEQLAKVLRKEIPLRVHAHRADDIATVLRMVDEFDLEATIEHCTEGHLIADHIAKYNVKVSVGPTMTSRTKQELVNKGWHTLIELEKHGIPFSITTDHPVVTINHLVTSAIQAVKAGLSEQSAFQAITLRAAEHIGVEQQVGSLEKGKDGDFVIWSDHPFTATAQVEATYINGKCVTGSHC”, “not soluble”; for “SLKEVLESKLNDRPDANVLIGLGRNISGEAVLAELNKMPHLLVAGATGSGKSVCVNGIITSILMRAKPHEVKMMMIDPKMVELNVYNGIPHLLAPVVTDPKKASQALKKVVNEMERRYELFSHTGTRNIEGYNDYIKRANNEEGAKQPELPYIVVIVDELADLMMVASSDVEDSITRLSQMARAAGIHLIIATQRPSV”, “not soluble”.
Then “SLKIYRSTLLHTPASPFAVPDALQTFSDGALAVGDTGTIAHLGTFTEVLAEVRAACPDAEVHDLRGGVLLPGFIDTHVHYPQVRVLGGLGMALLEWLDRNTLPEEARLADAAYARTIAGEFLHGLASHGTTTALVFGSHFAGAMDEFFAEAAARGLRVVAGQVVSDRLLRPELHTTPERAYAEGKALIERWHGQGRSLYAVTPRFSLSASEGILDACAALLTEFPDVRFTSHINENNQEIEVVRGLFPGARDYLDTYERAGLVTPRSVFAHNVHPNERELGVLAAQRCSVAHCPCSNSALGSGLFPLRRHLAAGVHVALGTDVGGGTGFSLLKEGLQAYFMQQLLGEEGAALSPAHLLYLATLAGAQALGLDGQVGDFTPGKQFDAVWLRPRAGSTLATVLAHAESEERTLAALFALGTGDDVERVWVGGGVVFAREAEA”, with “soluble”; and “SLKKIVESTTFPRTKQSITEDLKALGLKKGMTVLVHSSLSSIGWVNGGAVAVIQALIDVVTEEGTIVMPSQSVELSDPKEWGNPPVPEEWWDIIRESMPAYNSNYTPTTRGMGQIVELFRSYPEVKRSNHPNYSFVAWGKHKNKILNQHPLEFGLGEQSPLGKLYIRESYVLLLGADFDSSTCFHLAEYRIPYQKIINRGAPIIVEGKRVWKEYKELEFREELFQEVGQAFEAEHNMKVGKVGSANCRLFSLTEAVDFAEKWFINNDSKNIKK”, with “soluble”.
Turning to “SLLGMNFAMHTTIDTKLVLFGPSENLVTEDDDARNMASKLIENGIITTACINYVKDKPAESKLREMRIVLEPVGKIISDYIKDGYVPVTF”, the “soluble on expression in E. coli” value was “not soluble”.
Then “SLNDNFKKQPHHLIYEELLQQGITLGITTRGDGLSDYPKNAFNMARYIDDRPYNITQHQLQLAEEIAFDRKNWVFPIQTHENKVACITKDDIGTNIDTLTDALHGIDAMYTYDSNVLLTMCYADCVPVYFYSTKHHFIALAHAGWRGTYTEIVKEVLKHVNFDLKDLHVVIGPSTSSSYEINDDIKNKFETLPIDSANYIETRGRDRHGIDLKKANAALLIYYGVPKENIYTTAYATSEHLELFFSYRLEKGQTGRMLAFIGQQ”, with “soluble”; and “SLNFRAEDLASGILRERVKVGASLADVDPMNIDKSVRFDSIGGLSHHIHALKEMVVFPLLYPEIFEKFKIQPPRGCLFYGPPGTGKTLVARALANECSQGDKKVAFFMRKGADCLSKWVGESERQLRLLFDQAYLMRPSIIFFDEIDGLAPVRSSRQDQIHSSIVSTLLALMDGLDNRGEIVVIGATNRLDSIDPALRRPGRFDREFLFNLPDQKARKHILQIHTRDWNPKLSDAFLGELAEKCVGYCGADIKALCTEAALIALRRRYPQIYASSHKLQLDVSSIVLSAQDFYHAMQNIVPASQRAVMSSGHALSPIIRPLLERSFNNILAVLQKVFPHAEISQSDKKEDIETLILEDSEDENALSIFETNCHSGSPKKQSSSAAIHKPYLHFTMSPYHQPTSYRPRLLLSGERGSGQTSHLAPALLHTLERFSVHRLDLPALYSVSAKTPEESCAQIFREARRTVPSIVYMPHIGDWWEAVSETVRATFLTLLQDIPSFSPIFLLSTSETMYSELPEEVKCIFRIQYEEVLYIQRPIEEDRRKFFQELILNQASMAPPRRKHAALCAMEVLPLALPSPPRQLSESEKSRMEDQEENTLRELRLFLRDVTKRLATDKRFNIFSKPVDIEEVSDYLEVIKEPMDLSTVITKIDKHNYLTAKDFLKDIDLICSNALEYNPDKDPGDKIIRHRACTLKDTAHAIIAAELDPEFNKLCEEIKEARI”, with “soluble”.
As to “SLNGRPTTPNGAAGKWGDYRKCDTPKRTVDHMLNHIADTHSDIDFIIWTGDLPPHDVWNQTKEENLKVLKETVTQMTEKFPGIPIFPALGNHESAPVNSFPPPYVQQVDSSIAWLYDELDVQWRRWLPASVSHTVRRGAFYSVLVRPGYRIISLNMNYCNNKNWWLLLNSTDPATELQWFIYELQSAEFAGEKVHVIGHIPPGHSDCLKVWSRNYYKIVSRFESTITAQFFGHTHFDEFEVFYDPHDLSRATSIAYIGPSVTPYNDLNPGYRIYYIDGDHDETTRLVVDHESWIMNLKEANLYDYPIWYKLYSTRAAYGMKGLRPADWDQLINNMTDSKELFDLYYKHYWKASPVKPECDYECRKRILCDAKSGRSHDRKYFCEEVEAKIDESNKGWKDWLFS”, the “soluble on expression in E. coli” value is “not soluble”.
For “SLNSPIATVEVFTLTQPRKVPYLGALREGEVVNPNGYIVRKGNRTVYPTFDRSVLVRMTTEAGTVGWGETYGIVAPGAVAALINDLLAGFVIGRDASDPSAVYDDLYDMMRVRGYTGGFYVDALAALDIALWDIAGQEAGKSIRDLLGGGVDSFPAYVSGLPERTLKARGELAKYWQDRGFNAFKFATPVADDGPAAEIANLRQVLGPQAKIAADMHWNQTPERALELIAEMQPFDPWFAEAPVWTEDIAGLEKVSKNTDVPIAVGEEWRTHWDMRARIERCRIAIVQPEMGHKGITNFIRIGALAAEHGIDVIPHATVGAGIFLAASLQASSTLSMLKGHEFQHSIFEPNRRLLDGDMDCREGRYHLPSGPGLGVRPSEAALGLIERI”, the “soluble on expression in E. coli” value is recorded as “soluble”.
For “SLPHCETLLLEPIEGVLRITLNRPQSRNAMSLAMVGELRAVLAAVRDDRSVRALVLRGADGHFCAGGDIKDMAGARAAGAEAYRTLNRAFGSLLEEAQAAPQLLVALVEGAVLGGGFGLACVSDVAIAAADAQFGLPETSLGILPAQIAPFVVRRIGLTQARRLALTAARFDGREALRLGLVHFCEADADALEQRLEETLEQLRRCAPNANAATKALLLASESGELGALLDDAARQFAEAVGGAEGS” the value was “not soluble”.

The values are drawn from the DeepSol protein solubility set.
